Test results taken from paper PMC9482650, “Quantitative fragmentomics allow affinity mapping of interactomes” (Nature Communications, 2022).

T1: DFNB31_3, Q9P202
T1 sequence (Q9P202 811-907, limits assumed, looked up): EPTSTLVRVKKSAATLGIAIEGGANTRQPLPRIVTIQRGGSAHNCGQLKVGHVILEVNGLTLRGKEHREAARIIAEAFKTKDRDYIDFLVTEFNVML

T2: DLG3_1, Q92796
T2 sequence (Q92796 125-227, limits assumed, looked up): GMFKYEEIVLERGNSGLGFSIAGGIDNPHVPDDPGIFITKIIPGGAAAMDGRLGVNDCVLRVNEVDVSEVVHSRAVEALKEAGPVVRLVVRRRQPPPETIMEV

T3: LIN7A, O14910
T3 sequence (O14910 103-200, limits assumed, looked up): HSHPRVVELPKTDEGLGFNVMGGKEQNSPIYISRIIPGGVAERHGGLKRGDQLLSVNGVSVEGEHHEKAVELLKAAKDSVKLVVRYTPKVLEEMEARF

T4: MPDZ_5, O75970
T4 sequence (O75970 695-796, limits assumed, looked up): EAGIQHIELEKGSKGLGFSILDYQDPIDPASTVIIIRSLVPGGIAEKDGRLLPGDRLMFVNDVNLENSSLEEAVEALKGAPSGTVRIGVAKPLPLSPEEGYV

T5: MPP6, Q9NZW5
T5 sequence (Q9NZW5 125-219, limits assumed, looked up): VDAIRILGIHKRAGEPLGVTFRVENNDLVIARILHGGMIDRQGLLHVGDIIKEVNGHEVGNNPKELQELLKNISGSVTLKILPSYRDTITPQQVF

T6: NHERF3_1, Q5T2W1
T6 sequence (Q5T2W1 4-100, limits assumed, looked up): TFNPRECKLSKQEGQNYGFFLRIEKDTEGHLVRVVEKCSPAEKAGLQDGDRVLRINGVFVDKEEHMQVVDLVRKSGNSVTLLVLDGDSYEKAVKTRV

T7: NHERF3_4, Q5T2W1
T7 sequence (Q5T2W1 373-468, limits assumed, looked up): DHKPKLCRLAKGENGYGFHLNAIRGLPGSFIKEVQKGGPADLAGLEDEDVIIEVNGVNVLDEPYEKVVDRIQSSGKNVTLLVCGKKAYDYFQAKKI

T8: PCLO, Q9Y6V0
T8 sequence (Q9Y6V0 4491-4600, limits assumed, looked up): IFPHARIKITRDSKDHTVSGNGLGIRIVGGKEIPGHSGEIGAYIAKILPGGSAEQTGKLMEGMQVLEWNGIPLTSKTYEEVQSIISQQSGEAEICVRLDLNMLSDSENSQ

T9: PDZD2_2, O15018
T9 sequence (O15018 329-429, limits assumed, looked up): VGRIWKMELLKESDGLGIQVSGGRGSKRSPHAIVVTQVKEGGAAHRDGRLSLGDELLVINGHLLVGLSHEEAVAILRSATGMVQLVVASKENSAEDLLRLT

T10: SIPA1L2, Q9P2F8
T10 sequence (Q9P2F8 945-1036, limits assumed, looked up): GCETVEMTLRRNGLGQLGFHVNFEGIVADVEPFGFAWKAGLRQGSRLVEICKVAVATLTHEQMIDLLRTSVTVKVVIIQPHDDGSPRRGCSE

T11: SNTA1, Q13424
T11 sequence (Q13424 82-180, limits assumed, looked up): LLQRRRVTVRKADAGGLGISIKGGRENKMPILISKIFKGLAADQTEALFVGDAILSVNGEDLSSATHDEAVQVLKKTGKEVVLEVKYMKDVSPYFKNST

B1: FAM71C, Q8NEG0 (peptide)
chain: STYCDYTIEI
B2: NPSR1, Q6W5P4 (peptide)
chain: MQILSKPEFI
B3: TRPM1, Q7Z4N2 (peptide)
chain: KEKASTETEC
B4: POLR1D, P0DPB6 (peptide)
chain: QKASRNESTF
B5: FCHSD2, O94868 (peptide)
chain: KIEDVEITLV

Molecular target: CASK, O14936
Assay: holdup assay
Parameters: key: below the threshold = too weak to quantify, mostly under pKd 3.1 to 4
Conditions: plain residues with an end cap or a label only (N-terminal biotin on a linker: ado-ado)

Sequence of CASK, O14936 (O14936 487-570): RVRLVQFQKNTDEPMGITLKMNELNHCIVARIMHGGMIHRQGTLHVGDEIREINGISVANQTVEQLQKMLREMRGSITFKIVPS

Binder | pKd
B1 | 3.67
B2 | below the threshold
B3 | below the threshold
B4 | below the threshold
B5 | below the threshold

Molecular target: T1, DFNB31_3, Q9P202
Assay: holdup assay
Parameters: key: below the threshold = too weak to quantify, mostly under pKd 3.1 to 4
Conditions: plain residues with an end cap or a label only (N-terminal biotin on a linker: ado-ado)

Binder | pKd
B1 | 3.86
B2 | below the threshold
B3 | 3.64
B4 | below the threshold
B5 | 4.79

Molecular target: DLG1_1, Q12959
Assay: holdup assay
Parameters: key: below the threshold = too weak to quantify, mostly under pKd 3.1 to 4
Conditions: plain residues with an end cap or a label only (N-terminal biotin on a linker: ado-ado)

Binder | pKd
B1 | below the threshold
B2 | below the threshold
B3 | 3.96
B4 | below the threshold
B5 | 3.79

Molecular target: DLG1_2, Q12959
Assay: holdup assay
Parameters: key: below the threshold = too weak to quantify, mostly under pKd 3.1 to 4
Conditions: plain residues with an end cap or a label only (N-terminal biotin on a linker: ado-ado)

Binder | pKd
B1 | below the threshold
B2 | below the threshold
B3 | 4.23
B4 | 3.64
B5 | 4.3

Molecular target: DLG1_3, Q12959
Assay: holdup assay
Parameters: key: below the threshold = too weak to quantify, mostly under pKd 3.1 to 4
Conditions: plain residues with an end cap or a label only (N-terminal biotin on a linker: ado-ado)

Binder | pKd
B1 | below the threshold
B2 | below the threshold
B3 | below the threshold
B4 | below the threshold
B5 | 3.59

Molecular target: T2, DLG3_1, Q92796
Assay: holdup assay
Parameters: key: below the threshold = too weak to quantify, mostly under pKd 3.1 to 4
Conditions: plain residues with an end cap or a label only (N-terminal biotin on a linker: ado-ado)

Binder | pKd
B1 | below the threshold
B2 | below the threshold
B3 | below the threshold
B4 | below the threshold
B5 | below the threshold

Molecular target: FRMPD2_3, Q68DX3
Assay: holdup assay
Parameters: key: below the threshold = too weak to quantify, mostly under pKd 3.1 to 4
Conditions: plain residues with an end cap or a label only (N-terminal biotin on a linker: ado-ado)

Sequence of FRMPD2_3, Q68DX3 (Q68DX3 1073-1166): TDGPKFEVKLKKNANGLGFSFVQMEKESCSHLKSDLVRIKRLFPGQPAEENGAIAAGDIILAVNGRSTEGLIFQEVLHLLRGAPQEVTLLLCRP

Binder | pKd
B1 | below the threshold
B2 | below the threshold
B3 | below the threshold
B4 | below the threshold
B5 | below the threshold

Molecular target: FRMPD3, Q5JV73
Assay: holdup assay
Parameters: key: below the threshold = too weak to quantify, mostly under pKd 3.1 to 4
Conditions: plain residues with an end cap or a label only (N-terminal biotin on a linker: ado-ado)

Sequence of FRMPD3, Q5JV73 (Q5JV73 12-100): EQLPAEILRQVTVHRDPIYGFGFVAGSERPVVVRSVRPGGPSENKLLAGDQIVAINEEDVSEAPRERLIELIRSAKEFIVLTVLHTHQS

Binder | pKd
B1 | below the threshold
B2 | below the threshold
B3 | below the threshold
B4 | below the threshold
B5 | below the threshold

Molecular target: GOPC, Q9HD26
Assay: holdup assay
Parameters: key: below the threshold = too weak to quantify, mostly under pKd 3.1 to 4
Conditions: plain residues with an end cap or a label only (N-terminal biotin on a linker: ado-ado)

Binder | pKd
B1 | below the threshold
B2 | below the threshold
B3 | below the threshold
B4 | below the threshold
B5 | 4.09

Molecular target: GRASP, Q7Z6J2
Assay: holdup assay
Parameters: key: below the threshold = too weak to quantify, mostly under pKd 3.1 to 4
Conditions: plain residues with an end cap or a label only (N-terminal biotin on a linker: ado-ado)

Sequence of GRASP, Q7Z6J2 (Q7Z6J2 96-193): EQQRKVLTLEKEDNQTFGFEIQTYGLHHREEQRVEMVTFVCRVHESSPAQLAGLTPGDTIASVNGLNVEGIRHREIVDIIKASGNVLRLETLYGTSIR

Binder | pKd
B1 | 3.69
B2 | 3.68
B3 | below the threshold
B4 | below the threshold
B5 | 5.5

Molecular target: GRID2IP_2, A4D2P6
Assay: holdup assay
Parameters: key: below the threshold = too weak to quantify, mostly under pKd 3.1 to 4
Conditions: plain residues with an end cap or a label only (N-terminal biotin on a linker: ado-ado)

Sequence of GRID2IP_2, A4D2P6 (A4D2P6 272-370): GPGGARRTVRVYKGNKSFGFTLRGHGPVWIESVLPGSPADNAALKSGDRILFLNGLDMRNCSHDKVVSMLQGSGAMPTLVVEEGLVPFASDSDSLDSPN

Binder | pKd
B1 | below the threshold
B2 | below the threshold
B3 | below the threshold
B4 | below the threshold
B5 | 4.63

Molecular target: GRIP2_5, Q9C0E4
Assay: holdup assay
Parameters: key: below the threshold = too weak to quantify, mostly under pKd 3.1 to 4
Conditions: plain residues with an end cap or a label only (N-terminal biotin on a linker: ado-ado)

Sequence of GRIP2_5, Q9C0E4 (Q9C0E4 544-642): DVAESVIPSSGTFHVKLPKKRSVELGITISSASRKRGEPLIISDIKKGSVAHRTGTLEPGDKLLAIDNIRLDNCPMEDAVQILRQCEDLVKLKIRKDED

Binder | pKd
B1 | below the threshold
B2 | below the threshold
B3 | below the threshold
B4 | below the threshold
B5 | below the threshold

Molecular target: GRIP2_6, Q9C0E4
Assay: holdup assay
Parameters: key: below the threshold = too weak to quantify, mostly under pKd 3.1 to 4
Conditions: plain residues with an end cap or a label only (N-terminal biotin on a linker: ado-ado)

Sequence of GRIP2_6, Q9C0E4 (Q9C0E4 648-740): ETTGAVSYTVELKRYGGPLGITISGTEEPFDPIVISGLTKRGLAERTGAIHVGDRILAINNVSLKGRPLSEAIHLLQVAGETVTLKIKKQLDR

Binder | pKd
B1 | 4.14
B2 | below the threshold
B3 | below the threshold
B4 | below the threshold
B5 | below the threshold

Molecular target: HTRA2, O43464
Assay: holdup assay
Parameters: key: below the threshold = too weak to quantify, mostly under pKd 3.1 to 4
Conditions: plain residues with an end cap or a label only (N-terminal biotin on a linker: ado-ado)

Sequence of HTRA2, O43464 (O43464 355-458): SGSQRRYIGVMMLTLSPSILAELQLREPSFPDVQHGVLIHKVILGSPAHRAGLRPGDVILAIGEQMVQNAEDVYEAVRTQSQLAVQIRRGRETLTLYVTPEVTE

Binder | pKd
B1 | 3.85
B2 | 3.72
B3 | below the threshold
B4 | below the threshold
B5 | 3.93

Molecular target: IL16_3, Q14005
Assay: holdup assay
Parameters: key: below the threshold = too weak to quantify, mostly under pKd 3.1 to 4
Conditions: plain residues with an end cap or a label only (N-terminal biotin on a linker: ado-ado)

Sequence of IL16_3, Q14005 (Q14005 1107-1207): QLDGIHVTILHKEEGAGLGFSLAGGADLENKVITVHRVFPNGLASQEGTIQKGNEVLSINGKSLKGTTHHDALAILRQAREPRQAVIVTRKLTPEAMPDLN

Binder | pKd
B1 | below the threshold
B2 | below the threshold
B3 | below the threshold
B4 | below the threshold
B5 | below the threshold

Molecular target: T3, LIN7A, O14910
Assay: holdup assay
Parameters: key: below the threshold = too weak to quantify, mostly under pKd 3.1 to 4
Conditions: plain residues with an end cap or a label only (N-terminal biotin on a linker: ado-ado)

Binder | pKd
B1 | below the threshold
B2 | below the threshold
B3 | below the threshold
B4 | below the threshold
B5 | below the threshold

Molecular target: MAGI2_2, Q86UL8
Assay: holdup assay
Parameters: key: below the threshold = too weak to quantify, mostly under pKd 3.1 to 4
Conditions: plain residues with an end cap or a label only (N-terminal biotin on a linker: ado-ado)

Sequence of MAGI2_2, Q86UL8 (Q86UL8 410-522): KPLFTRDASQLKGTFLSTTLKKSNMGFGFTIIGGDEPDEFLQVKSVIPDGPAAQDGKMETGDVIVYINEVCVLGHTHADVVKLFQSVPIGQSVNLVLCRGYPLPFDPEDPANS

Binder | pKd
B1 | below the threshold
B2 | below the threshold
B3 | below the threshold
B4 | below the threshold
B5 | 3.77

Molecular target: MAST1, Q9Y2H9
Assay: holdup assay
Parameters: key: below the threshold = too weak to quantify, mostly under pKd 3.1 to 4
Conditions: plain residues with an end cap or a label only (N-terminal biotin on a linker: ado-ado)

Sequence of MAST1, Q9Y2H9 (Q9Y2H9 962-1065): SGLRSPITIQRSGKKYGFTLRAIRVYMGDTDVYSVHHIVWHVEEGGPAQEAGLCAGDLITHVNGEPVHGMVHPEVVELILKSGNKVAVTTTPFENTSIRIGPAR

Binder | pKd
B1 | 4.47
B2 | 3.68
B3 | 4.09
B4 | 4.08
B5 | 4.16

Molecular target: T4, MPDZ_5, O75970
Assay: holdup assay
Parameters: key: below the threshold = too weak to quantify, mostly under pKd 3.1 to 4
Conditions: plain residues with an end cap or a label only (N-terminal biotin on a linker: ado-ado)

Binder | pKd
B1 | below the threshold
B2 | below the threshold
B3 | below the threshold
B4 | below the threshold
B5 | below the threshold

Molecular target: T5, MPP6, Q9NZW5
Assay: holdup assay
Parameters: key: below the threshold = too weak to quantify, mostly under pKd 3.1 to 4
Conditions: plain residues with an end cap or a label only (N-terminal biotin on a linker: ado-ado)

Binder | pKd
B1 | 3.67
B2 | below the threshold
B3 | below the threshold
B4 | below the threshold
B5 | 3.74

Molecular target: NHERF2_2, Q15599
Assay: holdup assay
Parameters: key: below the threshold = too weak to quantify, mostly under pKd 3.1 to 4
Conditions: plain residues with an end cap or a label only (N-terminal biotin on a linker: ado-ado)

Sequence of NHERF2_2, Q15599 (Q15599 142-238): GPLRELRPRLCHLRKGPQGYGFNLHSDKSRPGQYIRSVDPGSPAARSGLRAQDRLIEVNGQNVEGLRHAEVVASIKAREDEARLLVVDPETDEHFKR

Binder | pKd
B1 | below the threshold
B2 | below the threshold
B3 | below the threshold
B4 | 3.7
B5 | 3.86

Molecular target: T6, NHERF3_1, Q5T2W1
Assay: holdup assay
Parameters: key: below the threshold = too weak to quantify, mostly under pKd 3.1 to 4
Conditions: plain residues with an end cap or a label only (N-terminal biotin on a linker: ado-ado)

Binder | pKd
B1 | below the threshold
B2 | below the threshold
B3 | 3.64
B4 | below the threshold
B5 | 4.13

Molecular target: T7, NHERF3_4, Q5T2W1
Assay: holdup assay
Parameters: key: below the threshold = too weak to quantify, mostly under pKd 3.1 to 4
Conditions: plain residues with an end cap or a label only (N-terminal biotin on a linker: ado-ado)

Binder | pKd
B1 | below the threshold
B2 | 3.51
B3 | below the threshold
B4 | below the threshold
B5 | below the threshold

Molecular target: T8, PCLO, Q9Y6V0
Assay: holdup assay
Parameters: key: below the threshold = too weak to quantify, mostly under pKd 3.1 to 4
Conditions: plain residues with an end cap or a label only (N-terminal biotin on a linker: ado-ado)

Binder | pKd
B1 | below the threshold
B2 | below the threshold
B3 | below the threshold
B4 | below the threshold
B5 | below the threshold

Molecular target: T9, PDZD2_2, O15018
Assay: holdup assay
Parameters: key: below the threshold = too weak to quantify, mostly under pKd 3.1 to 4
Conditions: plain residues with an end cap or a label only (N-terminal biotin on a linker: ado-ado)

Binder | pKd
B1 | 4.69
B2 | 3.62
B3 | below the threshold
B4 | below the threshold
B5 | 4.64

Molecular target: T10, SIPA1L2, Q9P2F8
Assay: holdup assay
Parameters: key: below the threshold = too weak to quantify, mostly under pKd 3.1 to 4
Conditions: plain residues with an end cap or a label only (N-terminal biotin on a linker: ado-ado)

Binder | pKd
B1 | below the threshold
B2 | below the threshold
B3 | below the threshold
B4 | below the threshold
B5 | below the threshold

Molecular target: T11, SNTA1, Q13424
Assay: holdup assay
Parameters: key: below the threshold = too weak to quantify, mostly under pKd 3.1 to 4
Conditions: plain residues with an end cap or a label only (N-terminal biotin on a linker: ado-ado)

Binder | pKd
B1 | below the threshold
B2 | below the threshold
B3 | 3.77
B4 | below the threshold
B5 | 3.76
